Measured values as given in patent US20140193400A1 (ESBATECH AN ALCON BIOMEDICAL RESEARCH UNIT, published 2014).
Read-outs that look alike come from different tables or passages of the source. Blank lines part the entries; values can stand above or below the molecule they belong to.

Columns and labels:
[1] = target: T1, recombinant human TNFalpha (human, UniProt P01375 77-233); experiment: cell-based or functional assay
[2] = target: T1, recombinant human TNFalpha; experiment: cell-based or functional assay; remark: listed apart in the source
[3] = target: T1, recombinant human TNFalpha; experiment: secretion ELISA on TNFα, bacterial culture supernatant not normalised for single-chain antibody content
[4] = target: T1, recombinant human TNFalpha; experiment: cell-based or functional assay; remark: listed apart in the source
[5] = target: T1, recombinant human TNFalpha; experiment: cell-based or functional assay; remark: listed apart in the source
[6] = target: T1, recombinant human TNFalpha; experiment: cell-based or functional assay; remark: listed apart in the source
[7] = target: T2, Human TNFa N-his trimers (His-tagged TNF, produced at ESBATech) (human, UniProt P01375 77-233); experiment: SPR (BIAcore T100), His-tagged human TNF captured on NTA chip, scFv as analyte
T2 construct: Captured as trimers on a Ni-NTA sensor chip by the N-terminal His tags in the Biacore assay of the general methods; also called human TNFα; human TNF alpha; not shown: N-terminal His tag
T2 sequence (P01375 77-233 limits assumed): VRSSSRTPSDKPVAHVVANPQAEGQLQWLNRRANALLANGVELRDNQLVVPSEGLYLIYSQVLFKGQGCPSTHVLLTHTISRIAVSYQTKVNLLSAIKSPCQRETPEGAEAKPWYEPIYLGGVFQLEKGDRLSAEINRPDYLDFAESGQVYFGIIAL
Experimental: (§1) For binding affinity measurements at pH5 and pH 7.4 (data not shown), surface Plasmon resonance measurements with BIAcore™-T 100 were employed using a NTA sensor chip and His-tagged TNF (produced at ESBATech). The surface of the NTA sensor chip consists of a carboxymethylated dextran matrix pre-immobilized with nitrilotriacetic acid (NTA) for capture of histidine tagged molecules via Ni2+NTA chelation. Human TNFa N-his trimers (5 nM) are captured by the nickel via their N-terminal his-tags and ESBA105 (analyte) is injected at several concentrations ranging from 30 nM to 0.014 nM in 3 fold serial dilution steps. At the regeneration step, the complex formed by nickel, ligand and analyte is washed away. This allows the use of the same regeneration conditions for different samples. The response signal is generated by surface Plasmon resonance (SPR) technology and measured in resonance units (RU). All the measurements are performed at 25° C. Sensorgrams were generated for each anti-TNF scFv sample after in-line reference cell correction followed by buffer sample subtraction. The apparent dissociation rate constant (kd), the apparent association rate constant (kₐ) and the apparent dissociation equilibrium constant (KD) were calculated using one-to-one Langmuir binding model with BIAcore T100 evaluation Software version 1.1.

[8] = target: T2, Human TNFa N-his trimers (His-tagged …); experiment: SPR (BIAcore), His-tagged human TNF captured on NTA chip, scFv as analyte; units taken from paragraph 184
Experimental: as §1

T1 sequence (P01375 77-233 limits assumed): as above

Molecule: Adalimumab (antibody)
IC50, block of cytotoxic activity (murine L929 cells, 1000 pg/ml TNF) [1]: 8.46 ng/mL | IC50, block of cytotoxic activity (human Kym-1 cells, 10 pg/ml TNF) [2]: 66.2 ng/mL | IC50, block of cytotoxic activity (murine L929 cells, 1000 pg/ml TNF) [2]: 8.45 ng/mL

binding result [3]: binds
B1: 34min (scFv)
scFv (VL-linker-VH): EIVMTQSPSTLSASVGDRVIITCQSSQSVYGNIWMAWYQQKPGKAPKLLIYQASKLASGVPSRFSGSGSGAEFTLTISSLQPDDFATYYCQGNFNTGDRYAFGQGTKLTVLGGGGGSGGGGSGGGGSGGGGSEVQLVESGGGLVQPGGSLRLSCAASGFTISRSYWICWVRQAPGKGLEWVSCIYGDNDITPLYANWAKGRFTISRDNSKNTLYLQMNSLRAEDTAVYYCAKLGYADYAYDLWGQGTLVTVSS
notes: also called EP34min; EP34_min

EC50, L929 potency assay [4]: 1 ng/mL | L929* [EC50-E105/EC50-X], potency relative to ESBA105 [5]: 6.4 ratio EC50 ESBA105/EC50 X (mass units, ng/ml) | L929* [EC50-E105/EC50-X], potency relative to ESBA105 [6]: 6.4 ratio EC50 ESBA105/EC50 X (mass units, ng/ml) | Kd [7]: 0.251 nM | koff [7]: 4.48e-05 s⁻¹ | kon [7]: 178000 M⁻¹ s⁻¹ | Kd [8]: 0.249 nM | koff [8]: 5.68e-05 s⁻¹ | kon [8]: 228000 M⁻¹ s⁻¹
B2: EP43_max (scFv)
scFv: EIVMTQSPSTLSASVGDRVIIKCQASQSISDWLAWYQQKPGKAPKLLIYGASRLASGFPSRFSGSGSGAEFTLTISGLEPADFATYYCQQGWSDSYVDNLFGQGTKLTVLGGGGGSGGGGSGGGGSGGGGSEVQLVESGGGLVQPGGSLRLSCTVSGFSLSSGAMSWVRQAPGKGLEWVGVIISSGATYYASWAKGRFTISKDTSKNTVYLQMNSLRAEDTAVYYCARGGPDDSNSMGTFDPWGQGTLVTVSS
notes: scFv NH2-VL-(GGGGS)4-VH-COOH; also called 676
